US11607390B2, “Self-righting systems and related components and methods” (priority 2017, dated 2023)

Tested on: Micrococcus lysodelkticus cells
Assay: Lysozyme enzyme activity assay
Type: biochemical
Settings: micropost tips 80% lysozyme, 20% PEO 200k vs uncompressed
Experimental: […] assays were performed on the dissolved solution.
To measure the activity of lysozyme, the assay provided by Sigma Aldrich was used which measures the amount of lysed Micrococcus lysodelkticus cells. Briefly, a 200 unit/mL Lysozyme solution in 50 mM Potassium Phosphate Buffer was added to a 0.015% [w/v] Micrococcus lysodeiklicus cell suspension in the same buffer. The decrease was recorded in A450 over 5 minutes. Nine micropost tips were fabricated from 80% lysozyme and 20% PEO 200k and dissolved sets of three micropost tips together. Triplicate assays were performed on each dissolved solution for a total of nine tests and the results were compared to the results of a solution made with lysozyme that was not compressed into a micropost tip.

lysozyme
enzymatic activity after the manufacturing process: maintain their activity
